# Columns and labels:
# [1] = molecular target: human ETA-receptor (ET-receptor derived from phETIR) (human) (UniProt P25101); assay: displacement of 50 pM 125I-ET-1 from COS-7 cells expressing the ETA-receptor
# [2] = molecular target: human ETB-receptor (ET-receptor derived from pHETBR31 and pHETBR34) (human) (UniProt P24530); assay: displacement of 125I-ET-1 from COS-7 cells expressing the ETB-receptor
# Chain of human ETB-receptor (ET-receptor derived from pHETBR31 and pHETBR34) (human) (P24530 27-442 limits assumed, form in doubt): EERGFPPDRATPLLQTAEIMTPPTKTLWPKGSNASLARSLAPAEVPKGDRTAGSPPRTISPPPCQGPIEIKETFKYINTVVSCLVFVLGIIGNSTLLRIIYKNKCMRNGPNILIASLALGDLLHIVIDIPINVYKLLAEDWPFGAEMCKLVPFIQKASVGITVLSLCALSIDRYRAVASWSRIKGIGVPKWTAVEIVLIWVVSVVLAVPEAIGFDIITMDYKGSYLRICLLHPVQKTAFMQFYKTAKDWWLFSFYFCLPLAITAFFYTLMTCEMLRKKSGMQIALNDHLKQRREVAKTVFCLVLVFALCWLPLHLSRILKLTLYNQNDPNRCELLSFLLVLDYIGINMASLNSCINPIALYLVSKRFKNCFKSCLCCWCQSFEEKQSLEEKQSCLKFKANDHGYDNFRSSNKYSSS
# Chain of human ETA-receptor (ET-receptor derived from phETIR) (human) (P25101 21-427 limits assumed, form in doubt): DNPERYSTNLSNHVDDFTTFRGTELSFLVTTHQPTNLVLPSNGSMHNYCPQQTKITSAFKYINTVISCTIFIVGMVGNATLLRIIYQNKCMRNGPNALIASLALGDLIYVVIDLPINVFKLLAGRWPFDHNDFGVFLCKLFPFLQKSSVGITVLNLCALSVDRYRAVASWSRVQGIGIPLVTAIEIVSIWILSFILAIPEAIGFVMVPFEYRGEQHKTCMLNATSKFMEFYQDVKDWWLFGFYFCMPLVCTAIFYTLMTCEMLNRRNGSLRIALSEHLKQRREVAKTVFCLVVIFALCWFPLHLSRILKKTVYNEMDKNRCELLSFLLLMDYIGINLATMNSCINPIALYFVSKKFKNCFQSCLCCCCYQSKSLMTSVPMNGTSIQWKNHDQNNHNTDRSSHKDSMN
IC50 [1] [nM],IC50 [2] [nM],Substance
6.1,1,Endothelin 2 (from UniProt P20800 49-69) (peptide)
–,1,Endothelin 3 (from UniProt P14138 97-117) (peptide)

# From patent US20020082414A1
